Reference: the supplement of paper PMC9112550, “Optimization of the antimicrobial peptide Bac7 by deep mutational scanning” (BMC Biology, 2022)

System: Escherichia coli TOP10
Assay: shrunken log2 fold change of peptide-encoding DNA abundance (4.5 h post-induction vs induction); higher = less antimicrobial activity (less host growth inhibition)
Conditions: time post-induction: 4.5 h; library: site-saturation at positions 5, 18, 19, 20
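Also: peptides expressed intracellularly from a pBAD plasmid library in pooled LB shake-flask culture, induced with 0.3% L-arabinose, DNA abundance read by NGS, three biological replicates, DESeq2 with apeglm shrinkage.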

First: RRIRSRPPRLPRPRPRPSYVPRP
Second: RRIRRRPPRLPRPRPRPHCVPRP
The “shrunken log2 fold change” value of the first is lower: -0.735 for the first, -0.0665 for the second.

RRIRMRPPRLPRPRPRPMLMPRP and RRIRIRPPRLPRPRPRPSGGPRP are within 0.2 log units of each other in “shrunken log2 fold change” value: 0.0323 for the first, 0.0858 for the second.

First: RRIRQRPPRLPRPRPRPQTYPRP
Second: RRIRIRPPRLPRPRPRPQYEPRP
The “shrunken log2 fold change” value of the first is lower: -0.958 for the first, -0.184 for the second.

Compared with RRIRKRPPRLPRPRPRPMCKPRP, RRIRGRPPRLPRPRPRPVFQPRP is higher in “shrunken log2 fold change” value: 0.0429 for the first, 0.519 for the second.

Going from RRIRQRPPRLPRPRPRPQQMPRP to RRIRFRPPRLPRPRPRPIWVPRP, the “shrunken log2 fold change” value falls from 0.156 to -0.107.

RRIRPRPPRLPRPRPRPVHHPRP and RRIRERPPRLPRPRPRPFCCPRP are within 0.2 log units of each other in “shrunken log2 fold change” value: -0.218 for the first, -0.0198 for the second.

RRIRCRPPRLPRPRPRPVFRPRP and RRIRYRPPRLPRPRPRPGQTPRP are within 0.2 log units of each other in “shrunken log2 fold change” value: -0.128 for the first, -0.0773 for the second.

RRIRHRPPRLPRPRPRPTYQPRP and RRIRVRPPRLPRPRPRPHFVPRP are within 0.2 log units of each other in “shrunken log2 fold change” value: 0.0668 for the first, -0.0262 for the second.

RRIRVRPPRLPRPRPRPPENPRP and RRIRERPPRLPRPRPRPDHGPRP are within 0.2 log units of each other in “shrunken log2 fold change” value: -0.0386 for the first, -0.00973 for the second.

Going from RRIRGRPPRLPRPRPRPALTPRP to RRIRMRPPRLPRPRPRPWMVPRP, the “shrunken log2 fold change” value falls from 0.874 to -0.128.

Compared with RRIRDRPPRLPRPRPRPLWGPRP, RRIRCRPPRLPRPRPRPFCRPRP is lower in “shrunken log2 fold change” value: 0.294 for the first, -0.0846 for the second.

First: RRIRHRPPRLPRPRPRPWCNPRP
Second: RRIRHRPPRLPRPRPRPDQRPRP
The “shrunken log2 fold change” value of the first is lower: -0.417 for the first, -0.00114 for the second.

RRIRNRPPRLPRPRPRPMMPPRP and RRIRFRPPRLPRPRPRPFGVPRP are within 0.2 log units of each other in “shrunken log2 fold change” value: -0.0635 for the first, -0.166 for the second.

RRIRERPPRLPRPRPRPHHVPRP and RRIRTRPPRLPRPRPRPVASPRP are within 0.2 log units of each other in “shrunken log2 fold change” value: 0.00979 for the first, 0.0362 for the second.

Going from RRIRSRPPRLPRPRPRPKYHPRP to RRIRFRPPRLPRPRPRPRCCPRP, the “shrunken log2 fold change” value rises from -0.601 to 0.164.

RRIRDRPPRLPRPRPRPMPFPRP and RRIRPRPPRLPRPRPRPKVAPRP are within 0.2 log units of each other in “shrunken log2 fold change” value: 0.00571 for the first, 0.02 for the second.

Going from RRIRCRPPRLPRPRPRPQIHPRP to RRIRWRPPRLPRPRPRPYQIPRP, the “shrunken log2 fold change” value rises from -0.548 to 0.0326.

Going from RRIRCRPPRLPRPRPRPLIYPRP to RRIRKRPPRLPRPRPRPNCEPRP, the “shrunken log2 fold change” value rises from -0.764 to 0.082.

First: RRIRMRPPRLPRPRPRPSNEPRP
Second: RRIRFRPPRLPRPRPRPLMNPRP
The “shrunken log2 fold change” value of the first is higher: 0.287 for the first, -0.607 for the second.

Compared with RRIRSRPPRLPRPRPRPMNSPRP, RRIRCRPPRLPRPRPRPPMEPRP is higher in “shrunken log2 fold change” value: -0.776 for the first, 0.245 for the second.

Compared with RRIRERPPRLPRPRPRPMQCPRP, RRIRIRPPRLPRPRPRPKDYPRP is lower in “shrunken log2 fold change” value: -0.211 for the first, -0.603 for the second.

Compared with RRIRPRPPRLPRPRPRPAGSPRP, RRIRYRPPRLPRPRPRPWYKPRP is lower in “shrunken log2 fold change” value: 0.206 for the first, -0.0225 for the second.

Compared with RRIRIRPPRLPRPRPRPPCIPRP, RRIRVRPPRLPRPRPRPHSNPRP is lower in “shrunken log2 fold change” value: -0.0558 for the first, -0.505 for the second.

RRIRERPPRLPRPRPRPSRVPRP and RRIRTRPPRLPRPRPRPWCNPRP are within 0.2 log units of each other in “shrunken log2 fold change” value: 0.0314 for the first, -0.0437 for the second.

RRIRFRPPRLPRPRPRPQECPRP and RRIRKRPPRLPRPRPRPQGVPRP are within 0.2 log units of each other in “shrunken log2 fold change” value: 0.0519 for the first, -0.0162 for the second.

Going from RRIRWRPPRLPRPRPRPRMVPRP to RRIRRRPPRLPRPRPRPNRTPRP, the “shrunken log2 fold change” value falls from 0.155 to -0.0707.

RRIRRRPPRLPRPRPRPKPAPRP and RRIRVRPPRLPRPRPRPDEPPRP are within 0.2 log units of each other in “shrunken log2 fold change” value: 0.347 for the first, 0.225 for the second.

First: RRIRSRPPRLPRPRPRPLQPPRP
Second: RRIRVRPPRLPRPRPRPHYVPRP
The “shrunken log2 fold change” value of the first is higher: 0.474 for the first, 0.0323 for the second.

Compared with RRIRPRPPRLPRPRPRPKPCPRP, RRIRERPPRLPRPRPRPIKSPRP is lower in “shrunken log2 fold change” value: -0.044 for the first, -0.611 for the second.

RRIRVRPPRLPRPRPRPWPRPRP and RRIRIRPPRLPRPRPRPDMCPRP are within 0.2 log units of each other in “shrunken log2 fold change” value: 0.183 for the first, 0.00741 for the second.

First: RRIRYRPPRLPRPRPRPSPYPRP
Second: RRIRPRPPRLPRPRPRPAECPRP
The “shrunken log2 fold change” value of the first is lower: -0.709 for the first, -0.223 for the second.

RRIRERPPRLPRPRPRPTQTPRP and RRIRHRPPRLPRPRPRPYSAPRP are within 0.2 log units of each other in “shrunken log2 fold change” value: -0.00311 for the first, 0.0254 for the second.

RRIRTRPPRLPRPRPRPAGFPRP and RRIRFRPPRLPRPRPRPMHYPRP are within 0.2 log units of each other in “shrunken log2 fold change” value: -0.0588 for the first, -0.0476 for the second.

Compared with RRIRTRPPRLPRPRPRPKDKPRP, RRIRKRPPRLPRPRPRPGLAPRP is higher in “shrunken log2 fold change” value: -0.341 for the first, 0.977 for the second.

First: RRIRTRPPRLPRPRPRPGCAPRP
Second: RRIRARPPRLPRPRPRPARDPRP
The “shrunken log2 fold change” value of the first is higher: 0.515 for the first, 0.298 for the second.

Going from RRIRRRPPRLPRPRPRPFEAPRP to RRIRLRPPRLPRPRPRPIDTPRP, the “shrunken log2 fold change” value falls from 1.04 to 0.115.

First: RRIRMRPPRLPRPRPRPCIEPRP
Second: RRIRVRPPRLPRPRPRPECEPRP
The “shrunken log2 fold change” value of the first is lower: -0.122 for the first, 0.605 for the second.

RRIRGRPPRLPRPRPRPYVMPRP and RRIRARPPRLPRPRPRPAYCPRP are within 0.2 log units of each other in “shrunken log2 fold change” value: -0.0513 for the first, -0.00541 for the second.

Compared with RRIRGRPPRLPRPRPRPHFVPRP, RRIRTRPPRLPRPRPRPNFCPRP is lower in “shrunken log2 fold change” value: 0.466 for the first, -0.126 for the second.

RRIRIRPPRLPRPRPRPNYGPRP and RRIRNRPPRLPRPRPRPCDSPRP are within 0.2 log units of each other in “shrunken log2 fold change” value: 0.0426 for the first, 0.11 for the second.

First: RRIRYRPPRLPRPRPRPMYMPRP
Second: RRIRGRPPRLPRPRPRPFWVPRP
The “shrunken log2 fold change” value of the first is lower: -2.38 for the first, 0.15 for the second.

First: RRIRDRPPRLPRPRPRPHTTPRP
Second: RRIRGRPPRLPRPRPRPYNSPRP
The “shrunken log2 fold change” value of the first is higher: -0.117 for the first, -0.359 for the second.

First: RRIRCRPPRLPRPRPRPFAHPRP
Second: RRIRCRPPRLPRPRPRPPQIPRP
The “shrunken log2 fold change” value of the first is lower: -0.355 for the first, 0.328 for the second.

RRIRTRPPRLPRPRPRPISAPRP and RRIRRRPPRLPRPRPRPYATPRP are within 0.2 log units of each other in “shrunken log2 fold change” value: 0.259 for the first, 0.418 for the second.

First: RRIRWRPPRLPRPRPRPEQWPRP
Second: RRIRARPPRLPRPRPRPGHDPRP
The “shrunken log2 fold change” value of the first is higher: 0.724 for the first, 0.215 for the second.

First: RRIRQRPPRLPRPRPRPPCIPRP
Second: RRIRIRPPRLPRPRPRPLYVPRP
The “shrunken log2 fold change” value of the first is higher: -0.053 for the first, -1.06 for the second.

Compared with RRIRNRPPRLPRPRPRPNCRPRP, RRIRSRPPRLPRPRPRPYVPPRP is lower in “shrunken log2 fold change” value: -0.0373 for the first, -0.784 for the second.

RRIRPRPPRLPRPRPRPMWDPRP and RRIRVRPPRLPRPRPRPWEPPRP are within 0.2 log units of each other in “shrunken log2 fold change” value: -0.0234 for the first, 0.13 for the second.

Going from RRIRGRPPRLPRPRPRPYHRPRP to RRIRGRPPRLPRPRPRPLMLPRP, the “shrunken log2 fold change” value rises from -0.203 to 0.462.

Compared with RRIRFRPPRLPRPRPRPNSEPRP, RRIRSRPPRLPRPRPRPDTPPRP is higher in “shrunken log2 fold change” value: -0.406 for the first, -0.0107 for the second.

RRIRLRPPRLPRPRPRPKEAPRP and RRIRIRPPRLPRPRPRPRYQPRP are within 0.2 log units of each other in “shrunken log2 fold change” value: -0.011 for the first, 0.00748 for the second.

Compared with RRIRERPPRLPRPRPRPKRHPRP, RRIRIRPPRLPRPRPRPGFHPRP is higher in “shrunken log2 fold change” value: 0.0422 for the first, 0.876 for the second.

RRIRIRPPRLPRPRPRPGPDPRP and RRIRHRPPRLPRPRPRPCNLPRP are within 0.2 log units of each other in “shrunken log2 fold change” value: -0.0181 for the first, -0.135 for the second.

RRIRDRPPRLPRPRPRPPKIPRP and RRIRQRPPRLPRPRPRPYKQPRP are within 0.2 log units of each other in “shrunken log2 fold change” value: -0.0144 for the first, 0.0225 for the second.

In the case of RRIRARPPRLPRPRPRPQQYPRP, the “shrunken log2 fold change” value is reported as -0.203.
